This is an account of results in article PMC12421412.

The test has as its target ectodomain of APP^695 (amyloid precursor protein). Put plainly: SPR; ectodomain of APP^695 coupled to the sensor chip surface; purified SORLA ectodomains as analyte; neutral pH; data also analysed with EVILFIT.

Turning to “soluble mutant SORLA^N1358S ectodomain, hexa-His-tagged (from UniProt Q92673 82-2137) (domain or fragment)”, the SPR sensorgram peak (response units) came to 1650 RU.
For “soluble wildtype SORLA ectodomain (Sortilin-related receptor with A-type repeats), hexa-His-tagged (from UniProt Q92673 82-2137) (domain or fragment)”, the SPR sensorgram peak (response units) is 1750 RU.
